Reference: paper PMC4552633

Tests used:
[1] = molecular target: clathrin adaptor AP-2, endogenous in 293T cells (detected by its α adaptin subunit), O95782;Q96CW1;P53680; experiment: cross-linking co-immunoprecipitation (anti-HA IP), Western blot quantification; conditions: read off a plot
[2] = molecular target: clathrin adaptor AP-1, endogenous in 293T cells (detected by its γ-adaptin subunit), O43747;Q9BXS5;P61966; experiment: as above; conditions: read off a plot
[3] = 293T tetherin Y6,8A cells, PFA (0.05% w/v) cross-linking, 48 h post transfection, parent: est. 2.3
[4] = 293T tetherin cells, PFA (0.05% w/v) cross-linking, 48 h post transfection, parent: est. 0.9
[5] = 293T tetherin Y6,8A cells, PFA (0.05% w/v) cross-linking, 48 h post transfection, parent: est. 1.8
[6] = 293T tetherin cells, PFA (0.05% w/v) cross-linking, 48 h post transfection, parent: est. 1.5
[7] = 293T tetherin Y6,8A cells, DMSO, PFA (0.05% w/v) cross-linking, 48 h post transfection, parent: est. 1.7
[8] = 293T tetherin Y6,8A cells, DMSO, PFA (0.05% w/v) cross-linking, 48 h post transfection, parent: est. 2.5

Substance | response (% relative to input control) [1, 3] | response (% relative to input control) [1, 4] | response (% relative to input control) [2, 5] | response (% relative to input control) [2, 6] | response (% relative to input control) [1, 7] | response (% relative to input control) ([1]; parent: est. 0) | response (% relative to input control) [2, 8] | response (% relative to input control) ([2]; parent: est. 0)
HIV-1 NL4.3 Vpu-HA (codon optimized, pCR3.1 Vpu-HA) A14L; W22A | 0 | 0 | 0 | 0.45 |  |  |  | 
HIV-1 NL4.3 Vpu-HA (codon optimized, pCR3.1 Vpu-HA) ELV | 0 | 0 | 0 | 0.95 | 0 | 0 | 0 | 0
HIV-1 NL4.3 Vpu-HA (codon optimized, pCR3.1 Vpu-HA) L41A; I42A; L45A; I46A | 0 | 0 | 0 | 0.1 |  |  |  | 
HIV-1 NL4.3 Vpu-HA (codon optimized, pCR3.1 Vpu-HA) N54H; E55G | 0 | 0 | 0 | 0 |  |  |  | 
HIV-1 NL4.3 Vpu-HA (codon optimized, pCR3.1 Vpu-HA) S52A; S56A | 0 | 0 | 0 | 1 | 0 | 0 | 0 | 0
